Reference: publication doi:10.1101/2021.09.03.458882 (bioRxiv, 2021)

Target: the molecule itself
Experiment: FRET or BRET

B1: Glucose oxidase (from Aspergillus niger) (enzyme, UniProt P13006 17-605, looked up)
chain: LPHYIRSNGIEASLLTDPKDVSGRTVDYIIAGGGLTGLTTAARLTENPNISVLVIESGSYESDRGPIIEDLNAYGDIFGSSVDHAYETVELATNNQTALIRSGNGLGGSTLVNGGTWTRPHKAQVDSWETVFGNEGWNWDNVAAYSLQAERARAPNAKQIAAGHYFNASCHGVNGTVHAGPRDTGDDYSPIVKALMSAVEDRGVPTKKDFGCGDPHGVSMFPNTLHEDQVRSDAAREWLLPNYQRPNLQVLTGQYVGKVLLSQNGTTPRAVGVEFGTHKGNTHNVYAKHEVLLAAGSAVSPTILEYSGIGMKSILEPLGIDTVVDLPVGLNLQDQTTATVRSRITSAGAGQGQAAWFATFNETFGDYSEKAHELLNTKLEQWAEEAVARGGFHNTTALLIQYENYRDWIVNHNVAYSELFLDTAGVASFDVWDLLPFTRGYVHILDKDPYLHHFAYDPQYFLNELDLLGQAAATQLARNISNSGAMQTYFAGETIPGDNLAYDADLSAWTEYIPYHFRPNYHGVGTCSMMPKEMGGVVDNAARVYGVQGLRVIDGSIPPTQMSSHVMTVFYAMALKISDAILEDYASMQ
modifications: amine reactive dye Alexa Fluor 488 on one population and Alexa Fluor 532 on the other
B1: binds.
